Laboratory results as given in US11110171B2, “PD-1 related cancer therapy” (New York University, priority 2017, dated 2021).

Target: T1, SHP2 binding to GST-PD1 (Homo sapiens, UniProt Q06124)
T1 construct: endogenous in cells; host or cells: SAP-knockdown Jurkat T cells (SHP2); GST-PD-1 tail made in BL21 E. coli
T1 sequence (Q06124 2-593 limits assumed): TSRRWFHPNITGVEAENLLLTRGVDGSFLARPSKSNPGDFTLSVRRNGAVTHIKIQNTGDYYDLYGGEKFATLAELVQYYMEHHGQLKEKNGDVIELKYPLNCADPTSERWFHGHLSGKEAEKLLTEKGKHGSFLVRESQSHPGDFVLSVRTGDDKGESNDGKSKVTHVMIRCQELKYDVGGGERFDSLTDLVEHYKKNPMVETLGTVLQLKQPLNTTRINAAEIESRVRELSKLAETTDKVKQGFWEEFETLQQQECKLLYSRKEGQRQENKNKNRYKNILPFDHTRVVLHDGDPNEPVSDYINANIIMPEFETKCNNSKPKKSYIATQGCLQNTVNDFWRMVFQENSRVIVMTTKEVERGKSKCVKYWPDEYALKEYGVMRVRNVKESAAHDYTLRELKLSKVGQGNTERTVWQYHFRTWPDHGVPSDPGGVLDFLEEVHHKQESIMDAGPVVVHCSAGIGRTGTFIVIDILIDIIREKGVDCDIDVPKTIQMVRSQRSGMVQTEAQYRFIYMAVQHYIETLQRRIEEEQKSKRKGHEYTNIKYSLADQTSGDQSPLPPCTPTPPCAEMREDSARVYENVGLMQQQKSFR
T1 sequence (Q15116 192-288 partner limits assumed): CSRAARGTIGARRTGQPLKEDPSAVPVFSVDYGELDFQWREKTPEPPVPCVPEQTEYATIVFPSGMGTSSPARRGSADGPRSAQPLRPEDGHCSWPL
Test: Affinity purification of SHP2 by GST-PD1 with increasing concentrations of recombinant SAP
Conditions: increasing concentrations of recombinant SAP added to SAP KD Jurkat cell lysate
Method: FIG. 3. SAP is indirectly associated with PD-1. (ai) Pervanadate treated Jurkat T cells were transiently transfected with GFP-tagged PD-1 or GFP alone; Whole cell lysates (WCL) were immunoprecipitated with an anti-GFP antibody (IP: GFP), and samples were analyzed by immunoblotting. (aii) Densitometry values of data shown in ai. (b) Jurkat T cells were transfected with plasmids directing expression of the indicated fluorescent proteins and after 24 hours cells were stimulated with anti-CD3 antibodies and recombinant PDL2, followed by live-imaging. Bar, 10 μm. […] (di) Jurkat T cells were transfected with different versions of GFP-tagged PD-1, as indicated, followed by treatment with pervanadate; Whole-cell lysates (Input) were immunoprecipitated with an anti-GFP antibody (IP: GFP), and samples were analyzed by immunoblotting. […] (ei) 293T cells were transfected with plasmid directing expression of GFP-SAP or a control GFP plasmid, followed by treatment with pervanadate; Lysates were pulled-down with the GST-tagged PD-1 and samples were analyzed by immunoblotting. […] (gi) SHP2 KD and scrambled control Jurkat T cells were transfected with GFP-tagged PD-1, followed by treatment with pervanadate; Lysates were immunoprecipitated with an anti-GFP antibody (IP: GFP), and samples were analyzed by immunoblotting. […] Samples were analyzed by immunoblot. […]

interference with the affinity-purification of SHP2 by GST-PD1: did not interfere
B1: SAP: Recombinant human SAP (His tagged), signaling lymphocytic activation molecule-associated protein, purchased from Abcam (protein, UniProt O60880 1-128, looked up)
SH2 domain-containing protein …: MDAVAVYHGKISRETGEKLLLATGLDGSYLLRDSESVPGVYCLCVLYHGYIYTYRVSQTETGSWSAETAPGVHKRYFRKIKNLISAFQKPDQGIVIPLQYPVEKKSSARSTQGTTGIREDPDVCLKAP
modifications: His tag
